Data on 16 molecules can be found in patent publication US20260241035A1, “FUNCTIONAL NUCLEIC ACID MOLECULE AND METHOD” (THE UNIVERSITY COURT OF THE UNIVERSITY OF EDINBURGH, priority 2022, published 2026).

Data set [1] concerns GSC7 cells. In words: Nano-Glo Dual-Luciferase Reporter (Nanoglo DLR) assay of enhancer activity, fold change to mCMV. Type of data set: cell-based, human. Conditions: for activity compared with CMV, Nanoglo DLR assay: GSC7; for Fold change (Median): expression fold change of the individual enhancer compared to mCMV. In a few lines: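 160 bp enhancer fragments in NanoLuc reporter plasmids were co-transfected 1:10 with PGK-firefly luciferase into GSC7 cells using Lipofectamine LTX/Plus and read two days later. NanoLuc signal was normalised to firefly, then expressed as fold change to the empty mCMV vector.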
A general note: In a reporter assay the amount or activity of a reporter protein is the signal.

Data set [2] relates to GSC7 cells. Description: Flow cytometry of mNGreen reporter in GSC7. Type of data set: cell-based, human. How it is done:
Cells were seeded at the required density. The following day the transfection was carried out. […] Following this step, the Plus reagent/Optimem premix was added to all DNA samples followed by the Lipofectamine LTX/Optimem premix. The transfection mix was incubated for 5 min at room temperature and then carefully dropped on the cells. Generally, no media change was carried out. Cells were analysed two days following transfection.
For flow cytometry, cells were detached, pelleted and resuspended in an appropriate volume of flow cytometry buffer (1% BSA in PBS, v/v). Cells were stained with Draq7 (Abcam, ab109202, f.c. 0.1 μM) as a live/dead stain and analysed using the BD LSRFortessa cell analyser (4 lasers, BD Bioscience).
On the technique in general: A flow cytometer gives signals particle by particle.

B1: SSE-1: synthetic super-enhancer ID1101_ID2904_ID0109_ID4328, SEQ ID NO: 64 (nucleic acid)
DNA: GTGAGTGTGACTCACATGCTGGCATCAGAGCCCCTCTTAGAGCTTAGAACACTGGGCCTCTGTCAGGCAAAGAAAAGGAGTCCCTATGAATAGCCATCTCCACAAATAGCAGTTACTGTCACTTCTTAAAAGACACAAGCATGGCTGGAGACCGGCACTGTGCATGTTCTTGGGAAAAAGTGGTATTTAATGAAGGCGCTTTGAGCTGAATCAAAGAGCCTCATTCTTCTGAAAGTCCTTCTTCCTAGTCTCTGCATCCGGCTCCTATCAAAGGAAATCCACAGCTTTGGCTTTTCGTTGCTGTTGTCATGGAAATCGTTGAAATTGGATCCTGAGGAGAATGTCACCACCTCTTTGACAATAACTAGCTTTCAGAGCTGAACACAGTGAATCTGGATACTGTGTATATGTTTAAATGAGTTAGGAAATGACATCACATTATTTATTTCTTCTTTTGTGACTTAGTAAATTGACTTGGCCTACAATCTATTCTCCATAGTCATCAGAGTTTCTTTAAAGGCACGGTTCAGACAATGGCACCCTCTGTTCCAAACCCTCCAGGGCTTCCTATTTCACTTAGCATAAAAACCAAAGTCCTCACAATGACCGACAAGTCTTCACACAATGTGCCCCTTCATTG
Consider B1, for which the “activity compared with CMV, Nanoglo DLR assay” value in the data set with GSC7 cells [1] is “higher than CMV”. Moreover, in the data set with GSC7 cells [2], the “expression level compared with positive control CMV, flow cytometry” value is reported as “higher than CMV” and the “fluorescence intensity compared with CMV” value was “higher intensity than CMV”.

B2: ID3548: enhancer fragment, SEQ ID NO: 15 (nucleic acid)
DNA: TCCAAACACTCCCCTGCAACAGATGTACACACAGAGCCCATTGTTTTCTCTAGAAATGTAAACTGCACGTCACAGTTACTCCATACACACCACAAACAGACTCCCTTTGTTCTCAGGATATGTGTTGACACAAGAATATGTCATCCTCTCAGCTCCAGAC
On to B2, for which, in the data set with GSC7 cells [1], the “Fold change (Median)” value is on record as 40.0 fold.

B3: ID0456: enhancer fragment, SEQ ID NO: 26 (nucleic acid)
DNA: ATCACAAAGTGGTTAGCATGCAGGGGAGTGCGCCGGTCCCCCGCCTGTATTTGCATGACAAAAGCGCCTGCCCAACGGCTCTCGGTGGCTTTGTTGAGAGCTGCAGCCTCGCTCAGGCTGAGCCTTGGGAATTGTTCCCCGACATTGGTTGTTCCTGGGC
Regarding B3, in the data set on GSC7 cells [1], the “Fold change (Median)” value is reported as 27.2 fold.

B4: ID4428: enhancer fragment, SEQ ID NO: 18 (nucleic acid)
DNA: TCTAAATGGAGATCCTCCCATAAAGGGAGTTCTGTTTGGGCTTCCCTTGGAAGTCCATTGAAAGCGTTTCACATTTCAATGCTTCTTTACATTCTCCTCTAGAATGAATCTGGAAGGGCCATTTCATTCCAGCCCTATCAGATTTACTACTTCCTCCTGT
Regarding B4, the “Fold change (Median)” value with GSC7 cells [1] is 36.2 fold.

B5: ID0291: enhancer fragment, SEQ ID NO: 24 (nucleic acid)
DNA: CATTCTTTGCAGATAGGAAACAGTTTGCTATCTGAGAGACTGGCCAAAAACCTTACTTTCAAGTAAAATAGGGCTCTATTCATAAGCTCCTACATGTACACAAGTTACTCTTTATACTCCTTTCAGACAATGATAAGAATAGAAACTATTTAATTCAGGA
For the molecule B5, the “Fold change (Median)” value in the data set on GSC7 cells [1] is 29.0 fold.

B6: ID4310: enhancer fragment, SEQ ID NO: 17 (nucleic acid)
DNA: TTGTCCTGCCTTTGAGAACACTGGAAGGGCACTGAAGGCTGACCAGCATGCACCTCACCCCACCTCCTCTCTGTCTCATCCTCAGCCATCTAAGCGGGAGACTCATCAGGCTTAAATTCTCATTCTTATCCAAGATTCTTCTGCTTCAAATGAG
With B6, the “Fold change (Median)” value with GSC7 cells [1] is recorded as 36.3 fold.

B7: ID3765: enhancer fragment, SEQ ID NO: 21 (nucleic acid)
DNA: B6 DNA
As for B7, the “Fold change (Median)” value with GSC7 cells [1] stood at 31.7 fold.

B8: ID0785: enhancer fragment, SEQ ID NO: 19 (nucleic acid)
DNA: AAGAATGAACTGGGCCCAGCTGGGCATTTGCATCAAAGTGCCTCACCAGAGTTCCCAGCTGCTCTGGCAGAGTGCCCAGGCTTGCCCCAGAGCCCAAACAGAATGCTCTTTGAGATGCCTCTGGTTTTCA
modifications: listed as DNA, chemistry not given here
Consider B8, for which, in the data set on GSC7 cells [1], the “Fold change (Median)” value was determined as 34.3 fold.

B9: SSE-2: synthetic super-enhancer ID0109_ID4328_ID0876_ID2339, SEQ ID NO: 65 (nucleic acid)
DNA: GAAATTGGATCCTGAGGAGAATGTCACCACCTCTTTGACAATAACTAGCTTTCAGAGCTGAACACAGTGAATCTGGATACTGTGTATATGTTTAAATGAGTTAGGAAATGACATCACATTATTTATTTCTTCTTTTGTGACTTAGTAAATTGACTTGGCCTACAATCTATTCTCCATAGTCATCAGAGTTTCTTTAAAGGCACGGTTCAGACAATGGCACCCTCTGTTCCAAACCCTCCAGGGCTTCCTATTTCACTTAGCATAAAAACCAAAGTCCTCACAATGACCGACAAGTCTTCACACAATGTGCCCCTTCATTGGAGCAGGCAGTCATTTGGTTCCCTTCTCTGAATGCATTGGCTCTGATCCACGGCGCCTCAGGAAGTGAAAGGGAGCAGGCAGTGAGGCCAAGCCATGAATGTTGGGCCCTTTTCTTAGAAAACAAAGGGTTCACTTTAGGCTAGGAGGAAACATCCGGGGGTCGGCGGAACTGAGTCTCCTTTGTGGAGCCCCTCATTTGCATGATAAACCCCGGGGACAAAGTGTGTTCTTGTTACTTGGACTGTTTCTTGGAAACTGCTGCTACCTGGAGCGAGTGAACACAGGGCAAGTATTCTCGCCCACAGCAACGTGTCATTGA
For the molecule B9, the “activity compared with CMV, Nanoglo DLR assay” value in the data set on GSC7 cells [1] is listed as “higher than CMV”. Also, in the data set on GSC7 cells [2], the “expression level compared with positive control CMV, flow cytometry” value is on record as “higher than CMV” and the “fluorescence intensity compared with CMV” value was “higher intensity than CMV”.

B10: ID1244: enhancer fragment, SEQ ID NO: 25 (nucleic acid)
DNA: ACAGCAGCCAGAGGAAGTGGCTGTGTACAGAGAGCTTTTGTGAGAGAAGAGGGGGAGGGGGAAAGAGCAAAGAAAAAGAAGGAAAGAAGAGAGGGAAGAGGCCAGAGACAGAGAAGGCCAGAGCA
modifications: listed as DNA, chemistry not given here
In the case of B10, in the data set with GSC7 cells [1], the “Fold change (Median)” value turned out to be 27.8 fold.

B11: ID3146: enhancer fragment, SEQ ID NO: 16 (nucleic acid)
DNA: TGAAAGAGATGGGTGTGTGGGAGTGGGGGAAGCTGAGCTCCAGGCAGACAGCACAGAGCCGCCTTGTCCAACCCAGCCAGGTGCCATGGCAACCAACAAAGGCCCCATTGTCCCGTGTCTGCTGGGCCTTCCTGAGGCTCTGGGGTCAGAGTCCCGGTT
Turning to B11, the “Fold change (Median)” value in the data set on GSC7 cells [1] was 37.2 fold.

B12: ID3836: enhancer fragment, SEQ ID NO: 20 (nucleic acid)
DNA: TACCCTTCCAGGGGAGCAGTTTCCTGGCTGTGTCGTCAGATACTGTGGTTTACGCTGTTCCGGAGTCTGGAGGTCTGTGTGCCTTTGATCTCTTTCCCAACTAATTTGCACAGCTGCTGTGGAGGCCCTCATGAATGACCTCTTTCTTTCCTTTCT
Turning to B12, the “Fold change (Median)” value in the data set on GSC7 cells [1] came to 33.4 fold.

B13: ID0885: enhancer fragment, SEQ ID NO: 14 (nucleic acid)
DNA: CAGCAAAGGCTGCACGCAATGGGGGAGGGGGAAGGAGGGAAGGATATTTCCTCCTTTTTAGATCAGTTTCTTTTCTGAGCACAAGTGCTTTCTGTGTCATCCTAACAATGTAAGAGCCCACTAAGTTTAGGACGCATAATACCGGCCTTTGTTCTACTCC
For the molecule B13, the “Fold change (Median)” value with GSC7 cells [1] amounted to 42.6 fold.

B14: ID1176: enhancer fragment, SEQ ID NO: 22 (nucleic acid)
DNA: ACAAACTAAACACAGACATTTTCTCAATTAGTCATTTTCAGGTTTATTGCCTAAGATGCTAATTGAAATTCAGGGCAGGCAAAAATACATCATTGGCCTTTGTATATCTTTGAAAGGCCTTCTGATGGGACCTTGCTCCGTATAAAGGCTTCTCTTCTCT
For B14, the “Fold change (Median)” value in the data set with GSC7 cells [1] amounted to 31.3 fold.

B15: ID1888: enhancer fragment, SEQ ID NO: 23 (nucleic acid)
DNA: GACCTTGCCTCTTTCTGGCCTGTGGCCTTTCTCCTCCCCCAGCTGCTGTCTGGCCGCCCCACCCCCAAGTCTCTGCCACAACCAAAGCTCCTTTGTTGCCTCCCCCTGCCCCGGGCCTCTCCACCTGCTGCTAGCTCAATCCCCTCTTTGTGTGGTTGGT
For the molecule B15, the “Fold change (Median)” value with GSC7 cells [1] is reported as 31.1 fold.

B16: ID1322: enhancer fragment, SEQ ID NO: 27 (nucleic acid)
DNA: GGGCAACAAAGGATGCCATGCAAAGCAGCTCAGAACTTGAGTTGTTTCAACAGATGCTGTTTTATGTTTTGCCAAAGAATGGCCCCTTTTATTTCTGTCATGAATGCAGTCTTTCTTTCAGTTTCTAAATGTTTGCCAGTATTAACCCTAATCCTTATCT
Turning to B16, the “Fold change (Median)” value with GSC7 cells [1] worked out at 26.7 fold.
